In the supplement of paper PMC11246515:
± gives the standard deviation of the averaged measurements.

Assay: total protein half-life in vivo (active degradation + dilution); higher = more stable protein
[1] = E. coli NCM3722 delta-clpP delta-lon delta-hslV, growth: N-lim chemostat, doubling time 6 h
[2] = E. coli NCM3722 delta-clpP, growth: N-lim chemostat, doubling time 6 h
[3] = E. coli NCM3722 delta-hslV, growth: N-lim chemostat, doubling time 6 h
[4] = E. coli NCM3722 delta-lon, growth: N-lim chemostat, doubling time 6 h
[5] = E. coli NCM3722 delta-smpB, growth: N-lim chemostat, doubling time 6 h
[6] = wild type E. coli NCM3722, growth: C-lim chemostat, doubling time 3 h
[7] = wild type E. coli NCM3722, growth: C-lim chemostat, doubling time 6 h
[8] = wild type E. coli NCM3722, growth: C-lim chemostat, doubling time 12 h
[9] = wild type E. coli NCM3722, growth: N-lim chemostat, doubling time 6 h
[10] = wild type E. coli NCM3722, growth: N-lim chemostat, doubling time 12 h
[11] = wild type E. coli NCM3722, growth: P-lim chemostat, doubling time 6 h
[12] = wild type E. coli NCM3722, growth: P-lim chemostat, doubling time 12 h

Sequence	total protein half-life in vivo [1] [h]	total protein half-life in vivo [2] [h]	total protein half-life in vivo [3] [h]	total protein half-life in vivo [4] [h]	total protein half-life in vivo [5] [h]	total protein half-life in vivo [6] [h]	total protein half-life in vivo [7] [h]	total protein half-life in vivo [8] [h]	total protein half-life in vivo [9] [h]	total protein half-life in vivo [10] [h]	total protein half-life in vivo [11] [h]	total protein half-life in vivo [12] [h]
MKMNKSLIVLCLSAGLLASAPGISLADVNYVPQNTSDAPAIPSAALQQLTWTPVDQSKTQTTQLATGGQQLNVPGISGPVAAYSVPANIGELTLTLTSEVNKQTSVFAPNVLILDQNMTPSAFFPSSYFTYQEPGVMSADRLEGVMRLTPALGQQKLYVLVFTTEKDLQQTTQLLDPAKAYAKGVGNSIPDIPDPVARHTTDGLLKLKVKTNSSSSVLVGPLFGSSAPAPVTVGNTAAPAVAAPAPAPVKKSEPMLNDTESYFNTAIKNAVAKGDVDKALKLLDEAERLGSTSARSTFISSVKGKG	5.04 ± 2.7	3.08	6.28	3.75 ± 0.98	2.82 ± 0.1	2.84 ± 0.031	4.94 ± 0.13	10.5 ± 1.6	3.93 ± 0.67	7.51 ± 0.25	4.18	6.149 ± 0.0079
MKMVSRITAIGLAGVAICYLGLSGYVWYHDNKRSKQADVQASAVSENNKVLGFLREKGCDYCHTPSAELPAYYYIPGAKQLMDYDIKLGYKSFNLEAVRAALLADKPVSQSDLNKIEWVMQYETMPPTRYTALHWAGKVSDEERAEILAWIAKQRAEYYASNDTAPEHRNEPVQPIPQKLPTDAQKVALGFALYHDPRLSADSTISCAHCHALNAGGVDGRKTSIGVGGAVGPINAPTVFNSVFNVEQFWDGRAATLQDQAGGPPLNPIEMASKSWDEIIAKLEKDPQLKTQFLEVYPQGFSGENITDAIAEFEKTLITPDSPFDKWLRGDENALTAQQKKGYQLFKDNKCATCHGGIILGGRSFEPLGLKKDFNFGEITAADIGRMNVTKEERDKLRQKVPGLRNVALTAPYFHRGDVPTLDGAVKLMLRYQVGKELPQEDVDDIVAFLHSLNGVYTPYMQDKQ	> 8	4.69	5.53	–	4.76	3.28 ± 0.2	5.27 ± 1	12.2	5.16	10.8	5.31	11 ± 1.4
MKNFEVLQPLQNSLSGLPLWVSERILQQINQLTHYEPVIGIMGKTGAGKSSLCNALFAGEVSPVSDVAACTRDPLRFRLQIGEHFMTIVDLPGVGESGVRDTEYAALYREQLPRLDLILWLIKADDRALATDEHFYRQVIGEAYRHKMLFVISQSDKAEPTSGGNILSTEQKQNISRKICLLHELFQPVHPVCAVSVRLQWGLRVMAERMIKCLPREASSPVVALLQHPFRTTVAREQARDDFGETVGAILDTVSTFPLIPAPVRTIIQAVRSSVVSVARAVWDFFF	–	–	3.97	–	–	–	–	10.6	–	–	–	–
MKNIKFSLAWQILFAMVLGILLGSYLHYHSDSRDWLVVNLLSPAGDIFIHLIKMIVVPIVISTLVVGIAGVGDAKQLGRIGAKTIIYFEVITTVAIILGITLANVFQPGAGVDMSQLATVDISKYQSTTEAVQSSSHGIMGTILSLVPTNIVASMAKGEMLPIIFFSVLFGLGLSSLPATHREPLVTVFRSISETMFKVTHMVMRYAPVGVFALIAVTVANFGFSSLWPLAKLVLLVHFAILFFALVVLGIVARLCGLSVWILIRILKDELILAYSTASSESVLPRIIEKMEAYGAPVSITSFVVPTGYSFNLDGSTLYQSIAAIFIAQLYGIDLSIWQEIILVLTLMVTSKGIAGVPGVSFVVLLATLGSVGIPLEGLAFIAGVDRILDMARTALNVVGNALAVLVIAKWEHKFDRKKALAYEREVLGKFDKTADQ	–	2.63	–	–	–	2.87	4.95	> 16	–	–	–	6.24
MKNIVPDYRLDMVGEPCPYPAVATLEAMPQLKKGEILEVVSDCPQSINNIPLDARNHGYTVLDIQQDGPTIRYLIQK [P0AA31]	–	–	–	–	–	3.04 ± 0.69	5.2 ± 0.98	6.03	–	–	–	–
MKNLIAELLFKLAQKEEESKELCAQVEALEIIVTAMLRNMAQNDQQRLIDQVEGALYEVKPDASIPDDDTELLRDYVKKLLKHPRQ [P0AAN9]	–	3.74 ± 0.97	4.38 ± 0.94	6.09 ± 1.4	4.195 ± 0.0044	3.54 ± 0.59	4.96 ± 0.47	7.25 ± 1.9	3.43 ± 0.67	8.18 ± 5.6	4.02 ± 1.8	10.1 ± 0.93
MKNQAHPIIVVKRRKAKSHGAAHGSWKIAYADFMTAMMAFFLVMWLISISSPKELIQIAEYFRTPLATAVTGGDRISNSESPIPGGGDDYTQSQGEVNKQPNIEELKKRMEQSRLRKLRGDLDQLIESDPKLRALRPHLKIDLVQEGLRIQIIDSQNRPMFRTGSADVEPYMRDILRAIAPVLNGIPNRISLSGHTDDFPYASGEKGYSNWELSADRANASRRELMVGGLDSGKVLRVVGMAATMRLSDRGPDDAVNRRISLLVLNKQAEQAILHENAESQNEPVSALEKPEVAPQVSVPTMPSAEPR [P0AF06]	–	–	–	–	–	0.683 ± 0.017	1.21	1.33	–	–	–	–
MKNSKAILQVPGTMKIISAEIPVPKEDEVLIKVEYVGICGSDVHGFESGPFIPPKDPNQEIGLGHECAGTVVAVGSRVRKFKPGDRVNIEPGVPCGHCRYCLEGKYNICPDVDFMATQPNYRGALTHYLCHPESFTYKLPDNMDTMEGALVEPAAVGMHAAMLADVKPGKKIIILGAGCIGLMTLQACKCLGATEIAVVDVLEKRLAMAEQLGATVVINGAKEDTIARCQQFTEDMGADIVFETAGSAVTVKQAPYLVMRGGKIMIVGTVPGDSAINFLKINREVTIQTVFRYANRYPVTIEAISSGRFDVKSMVTHIYDYRDVQQAFEESVNNKRDIIKGVIKISD	4.54	4.02	2.93	3.28	3.59 ± 0.58	2.63 ± 0.11	4.65 ± 0.57	8.14 ± 1.7	3.39 ± 0.43	5.18 ± 0.57	4.95 ± 0.44	9.79 ± 0.17
MKNVFKALTVLLTLFSLTGCGLKGPLYFPPADKNAPPPTKPVETQTQSTVPDKNDRATGDGPSQVNY [P0ADN6]	5.56 ± 0.35	5.27 ± 1.1	6.91 ± 1.1	6.29 ± 0.95	6.35 ± 0.59	2.95 ± 0.47	5.25 ± 1.2	> 16	6.03 ± 1.2	–	–	11.8 ± 0.15
MKNVGDLMQRLQKMMPAHIKPAFKTGEELLAWQKEQGAIRSAALERENRAMKMQRTFNRSGIRPLHQNCSFENYRVECEGQMNALSKARQYVEEFDGNIASFIFSGKPGTGKNHLAAAICNELLLRGKSVLIITVADIMSAMKDTFRNSGTSEEQLLNDLSNVDLLVIDEIGVQTESKYEKVIINQIVDRRSSSKRPTGMLTNSNMEEMTKLLGERVMDRMRLGNSLWVIFNWDSYRSRVTGKEY [P0AEF0]	3.95 ± 0.25	2.75 ± 0.059	2.11 ± 0.34	2.64 ± 0.32	2.33 ± 0.07	2.05 ± 0.26	4.67 ± 0.49	5.08 ± 0.67	2.18 ± 0.26	3.42 ± 0.18	3.49 ± 0.45	7.41 ± 2.5
MKPFLRWCFVATALTLAGCSNTSWRKSEVLAVPLQPTLQQEVILARMEQILASRALTDDERAQLLYERGVLYDSLGLRALARNDFSQALAIRPDMPEVFNYLGIYLTQAGNFDAAYEAFDSVLELDPTYNYAHLNRGIALYYGGRDKLAQDDLLAFYQDDPNDPFRSLWLYLAEQKLDEKQAKEVLKQHFEKSDKEQWGWNIVEFYLGNISEQTLMERLKADATDNTSLAEHLSETNFYLGKYYLSLGDLDSATALFKLAVANNVHNFVEHRYALLELSLLGQDQDDLAESDQQ [P0AFB1]	6.43 ± 0.4	6.3 ± 0.2	–	6.621 ± 0.019	6.66 ± 1.2	3.15 ± 0.24	5.9 ± 0.35	11.3 ± 0.48	6.12 ± 0.22	13.5 ± 2	7.56 ± 0.19	13.1 ± 0.29
MKPGCTLFFLLCSALTVTTEAHAQTPDTATTAPYLLAGAPTFDLSISQFREDFNSQNPSLPLNEFRAIDSSPDKANLTRAASKINENLYASTALERGTLKIKSIQMTWLPIQGPEQKAAKAKAQEYMAAVIRTLTPLMTKTQSQKKLQSLLTAGKNKRYYTETEGALRYVVADNGEKGLTFAVEPIKLALSESLEGLNK	6.2 ± 0.26	5.91 ± 0.5	5.05 ± 0.18	5.3822 ± 0.0028	5.12 ± 0.43	2.86 ± 0.12	5.26 ± 1.2	8.36 ± 0.16	4.14 ± 0.39	8.35 ± 1.6	3.75 ± 0.27	8.75 ± 1.1
MKPRQRQAAILEYLQKQGKCSVEELAQYFDTTGTTIRKDLVILEHAGTVIRTYGGVVLNKEESDPPIDHKTLINTHKKELIAEAAVSFIHDGDSIILDAGSTVLQMVPLLSRFNNITVMTNSLHIVNALSELDNEQTILMPGGTFRKKSASFHGQLAENAFEHFTFDKLFMGTDGIDLNAGVTTFNEVYTVSKAMCNAAREVILMADSSKFGRKSPNVVCSLESVDKLITDAGIDPAFRQALEEKGIDVIITGESNE	–	6.55 ± 0.26	5.66 ± 0.25	6.11 ± 1	6.36 ± 0.59	3.36 ± 0.46	6.64 ± 0.39	12.6 ± 2.2	6.06 ± 0.35	13 ± 0.2	5.82 ± 0.56	12.5 ± 0.15
MKPSSSNSRSKGHAKARRKTREELDQEARDRKRQKKRRGHAPGSRAAGGNTTSGSKGQNAPKDPRIGSKTPIPLGVTEKVTKQHKPKSEKPMLSPQAELELLETDERLDALLERLEAGETLSAEEQSWVDAKLDRIDELMQKLGLSYDDDEEEEEDEKQEDMMRLLRGN [P0A8H6]	5.38 ± 0.29	5.18 ± 0.7	4.08 ± 0.55	3.93 ± 0.22	4.09 ± 1.7	2.52 ± 0.0028	4.36 ± 0.45	7.24 ± 1.8	3.59 ± 0.17	5.58 ± 1	2.98	5.38 ± 0.71
